Experimental data as given in patent US20120289454.

How the values were obtained:
[1] = tested on: GGHYrFK-amide (synthetic)
[2] = tested on: GGHYrFK-amide (synthetic); assay: cleavage_in_vitro; settings: Cu complex; KM 0.85 µM; turnover number 32; 1 mM ascorbate, 1 mM H2O2
[3] = tested on: GGhyrfk-amide (synthetic); settings: Cu complex; Vmax 2.86 RFU/min

GGCAGAAAGCGUCUAGCCAUGGCGUUAGUAUGCC [HCV IRES SL IIb RNA]
Kd [1]: 0.044 µM
activity [2]: 0.53 min-1 (kcat)
Kd [3]: 6.09 µM
